Assay results reported in the supplement of paper PMC10724198.
± gives the standard deviation of the averaged measurements.

System: Saccharomyces cerevisiae
Assay: protein stability index of tFT-peptide fusion (C-terminal peptide) (PSI (0-1 scale)); higher = more stable (slower turnover)
Conditions: temperature: 30 C
Description: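 MPS profiling in S. cerevisiae of the yeast C-terminome library: the last 12 aa of each annotated ORF are fused to the C-terminus of a sfGFP-mCherry timer, after a GGGS linker. Cells are FACS-sorted into 8 mCherry/sfGFP bins and deep-sequenced. PSI runs from 0 (unstable) to 1 (stable); wild type and das1Δ backgrounds, two technical replicates each.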

[1] = genetic background: das1 deletion

Sequence	protein stability index [1]	protein stability index (genetic background: wild type)
NVLGEPFDRYLD [UTP10 C-terminal 12 aa]	0.724 ± 0.017	0.716 ± 0.013
NVPVSNGTTAAQ [UTP23 C-terminal 12 aa]	0.695 ± 0.013	0.691 ± 0.025
NYFIITCIGIIM [YPL261C C-terminal 12 aa]	0.228 ± 0.029	0.247 ± 0.0067
NYGQYSSFWSLL [YOR055W C-terminal 12 aa]	0.765 ± 0.019	0.754 ± 0.017
PADIATDHDITM [TAF8 C-terminal 12 aa]	0.717 ± 0.013	0.685 ± 0.0044
PAKVGIVKGEEN [MGE1 C-terminal 12 aa]	0.693 ± 0.021	0.709 ± 0.015
PCRYLELRKFGR [TPN1 C-terminal 12 aa]	0.7005 ± 0.0046	0.74 ± 0.045
PFGNGFKMNFGL [JEM1 C-terminal 12 aa]	0.736 ± 0.038	0.677 ± 0.058
PFKAIFDAVTKE [ARO1 C-terminal 12 aa]	0.73 ± 0.014	0.717 ± 0.021
PFYRTSAESIDF [SLM5 C-terminal 12 aa]	0.719 ± 0.022	0.706 ± 0.034
PGCVIENGTKLY [ADE57 C-terminal 12 aa]	0.687 ± 0.012	0.71 ± 0.011
PIKIIYNNKCPS [YLL006W-A C-terminal 12 aa]	0.709 ± 0.02	0.688 ± 0.0074
PKGGNYVSRYQR [THO2 C-terminal 12 aa]	0.695 ± 0.012	0.6623 ± 0.0015
PKINPLHARKPT [RAD52 C-terminal 12 aa]	0.7086 ± 0.0022	0.7036 ± 0.0028
PKSNMYYSWTQL [ORC4 C-terminal 12 aa]	0.7112 ± 0.0057	0.68625 ± 0.00028
PLALFYSHLILL [YGR151C C-terminal 12 aa]	0.6 ± 0.019	0.27 ± 0.016
PLGVQFLDTFRR [DSC2 C-terminal 12 aa]	0.718 ± 0.013	0.736 ± 0.051
PLHFQLIWLPIF [YML099W-A C-terminal 12 aa]	0.5232 ± 0.00075	0.505 ± 0.012
PLKFPLPLKPPL [YHL034W-A C-terminal 12 aa]	0.715 ± 0.018	0.699 ± 0.022
PLMFHCTRWEVD [GEP5 C-terminal 12 aa]	0.6911 ± 0.0033	0.741 ± 0.064
PLPDLDEDDGEE [DOM34 C-terminal 12 aa]	0.686 ± 0.0069	0.704 ± 0.041

Sequence	protein stability index [1]	protein stability index (genetic background: wild type)
PLSASWCTSLVT [YHR173C C-terminal 12 aa]	0.696 ± 0.0087	0.671 ± 0.0088
PNFGFLILNSEP [YAL064W C-terminal 12 aa]	0.73226 ± 0.00022	0.68 ± 0.014
PNILLAFSYTAW [YNL170W C-terminal 12 aa]	0.532 ± 0.017	0.5663 ± 0.0014
PPPPSRKCGTPK [LDB17 C-terminal 12 aa]	0.713 ± 0.038	0.7238 ± 0.0025
PSMTTTNFSAFM [ECM22 C-terminal 12 aa]	0.698 ± 0.008	0.697 ± 0.058
PSPTALANLARK [SGF29 C-terminal 12 aa]	0.677 ± 0.039	0.693 ± 0.041
PSSKAPSPGVNT [TEM1 C-terminal 12 aa]	0.677 ± 0.017	0.64 ± 0.026
PTPPGLQGPPGL [MSL5 C-terminal 12 aa]	0.692 ± 0.018	0.693 ± 0.0097
PVSESSSPNSWP [YDR230W C-terminal 12 aa]	0.768 ± 0.012	0.706 ± 0.02
QAADKRIDRNNP [SRD1 C-terminal 12 aa]	0.7185 ± 0.0037	0.702 ± 0.022
QDELDAMKEMGF [CSM3 C-terminal 12 aa]	0.698 ± 0.023	0.699 ± 0.049
QDRSCSWLKLLL [YLR171W C-terminal 12 aa]	0.685 ± 0.021	0.704 ± 0.021
QEISYKFSKTYS [IME1 C-terminal 12 aa]	0.676 ± 0.021	0.664 ± 0.038
QELISLIDVINQ [RNH203 C-terminal 12 aa]	0.7225 ± 0.005	0.739 ± 0.035
QFKQILENYRPT [VPS38 C-terminal 12 aa]	0.664 ± 0.0088	0.7348 ± 0.0013
QIVGLLKLLASI [PEX15 C-terminal 12 aa]	0.68 ± 0.036	0.405 ± 0.038
QIVGRYVVDTSK [ADH1 C-terminal 12 aa]	0.6827 ± 0.0057	0.683 ± 0.015
QKIDNALKMTGR [YDR102C C-terminal 12 aa]	0.6896 ± 0.0062	0.705 ± 0.0095
QKLHAIDGEDEL [GPI17 C-terminal 12 aa]	0.688 ± 0.017	0.649 ± 0.028
QLQDLLSSENNK [AIM11 C-terminal 12 aa]	0.7169 ± 0.0021	0.688 ± 0.032
